Measurements from patent US20240117030A1 (Pfizer, published 2024).
Residue numbers refer to the chain shown, from its start. Each block holds one binder with its values, some of them ahead of it.

Experiments:
[1] = biological target: T1, recombinant human IL-12 (p35+p40) (human, UniProt P29459 23-219; P29460 23-328); test: SPR (Biacore T200, 37 C), antibody captured by anti-human Fc, cytokine injected
T1 sequence (looked up) 1: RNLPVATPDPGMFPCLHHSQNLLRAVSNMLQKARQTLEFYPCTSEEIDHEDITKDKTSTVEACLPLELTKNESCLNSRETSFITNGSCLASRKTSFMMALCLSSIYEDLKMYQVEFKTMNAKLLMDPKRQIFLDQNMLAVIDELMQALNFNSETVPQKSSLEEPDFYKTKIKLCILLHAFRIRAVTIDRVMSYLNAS
T1 sequence (looked up) 2: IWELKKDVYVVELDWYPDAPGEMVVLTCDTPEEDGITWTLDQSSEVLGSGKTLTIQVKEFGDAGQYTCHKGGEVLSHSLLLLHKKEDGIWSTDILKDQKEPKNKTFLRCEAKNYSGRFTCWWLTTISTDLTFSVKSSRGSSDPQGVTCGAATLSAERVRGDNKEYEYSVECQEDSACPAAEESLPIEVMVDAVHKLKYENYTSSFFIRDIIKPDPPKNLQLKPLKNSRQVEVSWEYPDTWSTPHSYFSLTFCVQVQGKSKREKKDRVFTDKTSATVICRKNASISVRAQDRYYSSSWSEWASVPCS

[2] = biological target: T2, recombinant cynomolgus monkey IL-23 (p19+p40) (cynomolgus monkey, UniProt H6WS56 20-189; G7P6S2 23-328); test: as above
T2 construct: also called Cyno IL-23
T2 sequence (p19): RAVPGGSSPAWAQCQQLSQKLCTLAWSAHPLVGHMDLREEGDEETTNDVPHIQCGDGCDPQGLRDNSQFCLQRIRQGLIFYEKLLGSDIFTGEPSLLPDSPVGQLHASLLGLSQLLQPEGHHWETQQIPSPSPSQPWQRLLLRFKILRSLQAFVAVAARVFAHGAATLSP
T2 sequence (p40): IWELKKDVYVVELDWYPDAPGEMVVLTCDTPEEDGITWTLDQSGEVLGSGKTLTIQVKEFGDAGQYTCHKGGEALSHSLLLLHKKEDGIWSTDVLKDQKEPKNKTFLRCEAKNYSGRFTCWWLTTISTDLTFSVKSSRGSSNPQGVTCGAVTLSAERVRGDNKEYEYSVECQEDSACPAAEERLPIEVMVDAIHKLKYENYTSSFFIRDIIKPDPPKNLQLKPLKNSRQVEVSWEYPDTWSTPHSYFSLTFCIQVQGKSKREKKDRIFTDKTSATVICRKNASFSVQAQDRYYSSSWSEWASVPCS

[3] = biological target: T3, recombinant cynomolgus monkey IL-12 (p35+p40) (cynomolgus monkey, UniProt A0A2K5V4L8 57-253; G7P6S2 23-328); test: as above
T3 construct: also called Cyno IL-12
T3 sequence (p35): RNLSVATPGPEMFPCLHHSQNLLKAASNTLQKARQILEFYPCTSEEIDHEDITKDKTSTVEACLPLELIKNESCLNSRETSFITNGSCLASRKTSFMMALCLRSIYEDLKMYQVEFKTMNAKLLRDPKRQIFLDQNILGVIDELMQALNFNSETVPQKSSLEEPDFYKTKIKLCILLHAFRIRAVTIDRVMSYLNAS
T3 sequence (p40): T2 sequence (p40)

[4] = biological target: T4, recombinant human IL-23 (p19+p40) (human, UniProt Q9NPF7 20-189; P29460 23-328); test: as above
T4 sequence (looked up) 1: T2 sequence (p19) with A12T, R75H, P131L
T4 sequence (looked up) 2: T1 sequence (looked up) 2

[5] = biological target: T5, recombinant human TSLP (glycosylated long form) (human, UniProt Q969D9 29-159); test: cell-based or functional assay
[6] = biological target: T5, recombinant human TSLP (glycosylated …); test: cell-based or functional assay; remark: listed apart in the source
[7] = biological target: T5, recombinant human TSLP (glycosylated …); test: cell-based or functional assay; remark: listed apart in the source
[8] = biological target: T5, recombinant human TSLP (glycosylated …); test: competition ELISA on coated TSLP; competitor biotinylated TSLP-0001 (69 pM)
human TSLP short form = biological target: T6, human TSLP short form (human, UniProt Q969D9-2 1-63, limits assumed); test: SPR (Biacore 8K, 37 C), antibody captured on anti-Fab antibody on a CM5 chip, 300 nM short form TSLP injected (concentration from Example 79)
T6 construct: also called sfTSLP; TSLPsf Avi V5 His 10 Biotin

[9] = biological target: T7, recombinant human IL-33 (R&D Systems 3625-IL) (human, UniProt O95760 112-270, limits assumed); test: cell-based or functional assay
T7 sequence (looked up): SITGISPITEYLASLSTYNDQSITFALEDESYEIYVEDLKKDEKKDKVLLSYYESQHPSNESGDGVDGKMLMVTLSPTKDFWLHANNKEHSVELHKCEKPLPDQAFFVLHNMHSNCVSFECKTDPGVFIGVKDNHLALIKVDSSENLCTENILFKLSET

[10] = biological target: T8, cynomolgus monkey IL-33 (Pfizer) (cynomolgus monkey, UniProt A0A2K5W3I1 112-269); test: cell-based or functional assay
T8 sequence: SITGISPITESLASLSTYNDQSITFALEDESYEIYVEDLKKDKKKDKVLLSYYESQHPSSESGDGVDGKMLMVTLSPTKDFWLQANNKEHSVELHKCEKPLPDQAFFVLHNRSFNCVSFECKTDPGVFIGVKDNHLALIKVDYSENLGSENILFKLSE

[11] = biological target: T7, recombinant human IL-33 (R&D Systems …); test: cell-based or functional assay; remark: listed apart in the source
human IL-4R alpha [12] = biological target: T9, human IL-4R alpha (human, UniProt P24394 26-825); test: cell-based or functional assay
human IL-4R alpha [13] = biological target: T9, human IL-4R alpha; test: cell-based or functional assay; remark: listed apart in the source

B1: p40-0003 (antibody, human IgG1, kappa, V domains shown)
VH: EVQLVQSGAEVKKPGESLKISCKGSGYSFTTYWLGWVRQMPGKGLDWIGIMSPVDSDIRYSPSFQGQVTMSVDKSITTAYLQWNSLKASDTAMYYCARRRPGQGYFDFWGQGTLVTVSS
VL: DIQMTQSPSSLSASVGDRVTITCRASQGISSWLAWYQQKPEKAPKSLIYAASSLQSGVPSRFSGSGSGTDFTLTISSLQPEDFATYYCQQYNIYPYTFGQGTKLEIKR
notes: also called p40 mAb; ustekinumab (C230) variable regions on human IgG1 effector-null
Kd [1]: 156 pM | Kd [2]: 316 pM | Kd [3]: 368 pM | Kd [4]: 160 pM

B2: TSLP-0100 (antibody, human IgG1, V domains shown)
VH: QMQLVESGGGVVQPGRSLRLSCAASGFTFRTYGMHWVRQAPGKGLEWVAVIWYDGSNKHYADSVKGRFTISRDNSKNTLYLQMNSLRAEDTAVYYCARAPQWELVHEAFDIWGQGTMVTVSS
VL: SYVLTQPPSVSVAPGQTARITCGGNNLGSKSVHWYQQKPGQAPVLVVYDDSDRPSWIPERFSGSNSGNTATLTISRGEAGDEADYYCQVWDSSSDHVVFGGGTKLTVLG
notes: also called IL413TSLP-0100
a-TSLP TARC bioassay (fold change to TSLP-0001) [5]: 0.9 fold | a-TSLP bioassay (IC50, pM) [6]: 24.6 pM | anti-hTSLP TARC bioactivity (fold change to TSLP-0001) [7]: 0.9 fold | IC50 [8]: 870 pM

B3: TSLP-0875 (antibody, human IgG1, lambda, V domains shown)
VH: B2 VH with E103Y
VL: B2 VL with S51K, S93K
binding result (human TSLP short form): no binding (tested: 300 nM)

The remaining lines, values ahead:

IC50, IL-33-induced SEAP activity in HEK-Blue IL-33 SEAP cells (median) [9]: 13.4 pM | IC50, IL-33-induced SEAP activity in HEK-Blue IL-33 SEAP cells (median) [10]: 274 pM | IC50 (pM) HEK-Blue IL-33 SEAP (mean) [11]: 13.4 pM
B4: IL13433-1258 (antibody)
heavy: EVQLVESGGGLVQPGGSLRLSCAASGFTFSSYWMYWVRQAPGKGLEWVAAITPNAGEDYYPESVKGRFTISRDNAKNSLYLQMNSLRAEDTAVYYCARGQYYYTKYSLGYWGQGTLVTVSSASTKGPSVFPLAPSSKSTSGGTAALGCLVKDYFPEPVTVSWNSGALTSGVHTFPAVLQSSGLYSLSSVVTVPSSSLGTQTYICNVNHKPSNTKVDKKVEPKSCRKTHTCPPCPAPEAAGAPSVFLFPPKPKDTLMISRTPEVTCVVVDVSHEDPEVKFNWYVDGVEVHNAKTKPREEQYNSTYRVVSVLTVLHQDWLNGKEYKCKVSNKALPAPIEKTISKAKGQPREPQVYTLPPSREEMTKNQVSLTCLVKGFYPSDIAVEWESNGQPENNYKTTPPVLDSDGSFFLYSRLTVDKSRWQQGNVFSCSVLHEALHSHYTQKSLSLSPGK
light 1: DIQMTQSPSSLSASVGDRVTITCRASQPIHNHLDWYQQKPGKAPKLLIYFGKNLQEGVPSRFSGSGSGTDFTLTISSLQPEDFATYYCFQYKKGWSFGGGTKVEIKRTVAAPSVFIFPPSDEQLKSGTASVVCLLNNFYPREAKVQWKVDNALQSGNSQESVTEQDSKDSTYSLSSTLTLSKADYEKHKVYACEVTHQGLSSPVTKSFNRGEC
chain 1: DIQMTQSPSSLSASVGDRVTITCKASESVDHFGWSLVHWYQQKPGKAPKLLIYRASNLESGVPSRFSGSGSGTDFTLTISSLQPEDFATYYCQQSNEDPWTFGGGTKVEIKRTVAAPSVFIFPPSDEQLKSGTASVVCLLNNFYPREAKVQWKVDNALQSGNSQESVTEQDSKDSTYSLSSTLTLSKADYEKHKVYACEVTHQGLSSPVTKSFNRGECGGGGSEVTLRESGPALVKPTQTLTLTCTFSGFSLSNFGEGLSWIRQPPGKGLEWLAHIYWDDDKRYNPSLKSRLTISKDTSRNQVVLTMTNMDPVDTATYYCARRETVFYWYFDVWGQGTTVTVSSASTKGPSVFPLAPSSKSTSGGTAALGCLVKDYFPEPVTVSWNSGALTSGVHTFPAVLQSSGLYSLSSVVTVPSSSLGTQTYICNVNHKPSNTKVDKKVEPKSCEKTHTCPPCPAPEAAGAPSVFLFPPKPKDTLMISRTPEVTCVVVDVSHEDPEVKFNWYVDGVEVHNAKTKPREEQYNSTYRVVSVLTVLHQDWLNGKEYKCKVSNKALPAPIEKTISKAKGQPREPQVYTLPPSREEMTKNQVSLTCEVKGFYPSDIAVEWESNGQPENNYKTTPPVLDSDGSFFLYSKLTVDKSRWQQGNVFSCSVLHEALHSHYTQKSLSLSPGK
light 2: DIQMTQSPSSLSASVGDRVTITCRASQSVDEEGDSYMNWYQQKPGKAPKLLIYAASNLESGVPSRFSGSGSGTDFTLTISSLQPEDFATYYCQQSNKDPPTFGGGTKVEIKRTVAAPSVFIFPPSDEQLKSGTASVVCLLNNFYPREAKVQWKVDNALQSGNSQESVTEQDSKDSTYSLSSTLTLSKADYEKHKVYACEVTHQGLSSPVTKSFNRGEC
chain 2: EVQLVESGGGLVQPGGSLRLSCAASGFTFSSYAMSWVRQAPGKGLEWVASISSGDTTYYPDSVKGRFTISRDNAKNSLYLQMNSLRAEDTAVYYCARNEGYYFGLTLWGQGTLVTVSSASTKGPSVFPLAPSSKSTSGGTAALGCLVKDYFPEPVTVSWNSGALTSGVHTFPAVLQSSGLYSLSSVVTVPSSSLGTQTYICNVNHKPSNTKVDKKVEPKSC

IC50 (median), IL-4 induced CD23 expression on human monocytes (human IL-4R alpha [12]): 104 pM | IC50 (median), IL-13 induced CD23 expression on human monocytes (human IL-4R alpha [13]): 93.2 pM
B5: Dupilumab (antibody, V domains shown)
VH: EVQLVESGGGLEQPGGSLRLSCAGSGFTFRDYAMTWVRQAPGKGLEWVSSISGSGGNTYYADSVKGRFTISRDNSKNTLYLQMNSLRAEDTAVYYCAKDRLSITIRPRYYGLDVWGQGTTVTVSS
VL: DIVMTQSPLSLPVTPGEPASISCRSSQSLLYSIGYNYLDWYLQKSGQSPQLLIYLGSNRASGVPDRFSGSGSGTDFTLKISRVEAEDVGFYYCMQALQTPYTFGQGTKLEIKR
